Results published in patent US20250320281A1.

Experiments:
Test in all cases: cell-based or functional assay
[1] = biological target: HIV-1 Env of pseudovirus MGRM-G-014 (HIV-1, clade G isolate MGRM-G-014)
[2] = biological target: HIV-1 Env of isolate LAVI_C22 (HIV-1)
[3] = biological target: HIV-1 Env of isolate 92UG024 (clade D pseudovirus) (HIV-1)
[4] = biological target: HIV-1 Env of pseudovirus MGRM-AE-007 (clade CRF01_AE) (HIV-1)
[5] = biological target: HIV-1 92TH021 envelope glycoprotein (Env) on pseudovirus (HIV-1)
[6] = biological target: HIV-1 Env of isolate MGRM-D-012 (clade D pseudovirus) (HIV-1)
[7] = biological target: HIV-1 Env of isolate 97ZA012 (clade C) (HIV-1 isolate 97ZA012)
[8] = biological target: HIV-1 Env of pseudovirus MGRM-AE-004 (clade CRF01_AE) (HIV-1)
[9] = biological target: HIV-1 Env of pseudovirus MGRM-F1-017 (HIV-1)
[10] = biological target: envelope protein of aMLV pseudovirus (negative control)
[11] = biological target: HIV-1 Env of isolate MGRM-D-002 (clade D pseudovirus) (HIV-1)
[12] = biological target: HIV-1 Env of isolate MGRM-D-014 (clade D pseudovirus) (HIV-1)
[13] = biological target: HIV-1 Env of isolate 92UG001 (clade D pseudovirus) (HIV-1)
[14] = biological target: HIV-1 envelope glycoprotein (Env) of isolate 92RW026, clade A (HIV-1)
[15] = biological target: HIV-1 envelope glycoprotein (Env) of isolate MGRM-A-009, clade A (HIV-1)
[16] = biological target: HIV-1 Env of isolate LAVI_C3 (HIV-1)
[17] = biological target: HIV-1 92RW020 envelope glycoprotein (Env) on pseudovirus (HIV-1)
[18] = biological target: HIV-1 Env of isolate MGRM-G-014 (HIV-1)
[19] = biological target: HIV-1 Env of isolate MGRM-G-011 (HIV-1)
[20] = biological target: HIV-1 Env of isolate MGRM-AE-003 (subtype AE) (HIV-1)
[21] = biological target: HIV-1 Env of isolate MGRM-AE-001 (subtype AE) (HIV-1)
[22] = biological target: HIV-1 Env of isolate CMU02 (subtype AE) (HIV-1)
[23] = biological target: HIV-1 Env of isolate MGRM-G-009 (HIV-1)
[24] = biological target: HIV-1 Env of isolate MGRM-G-001 (HIV-1)
[25] = biological target: HIV-1 Env of isolate MGRM-AE-006 (subtype AE) (HIV-1)
[26] = biological target: HIV-1 Env of isolate MGRM-AE-005 (subtype AE) (HIV-1)
[27] = biological target: HIV-1 APV17 Env (pseudovirus) (HIV-1)
[28] = biological target: HIV-1 Env of isolate MGRM-C-027 (HIV-1)
[29] = biological target: HIV-1 Env of isolate MG RM-D-014 (HIV-1)
[30] = biological target: HIV-1 Env of isolate 92BR020 (HIV-1)

Sequence of 1443_C16 (PG16) (TCN-116) (antibody) (VH): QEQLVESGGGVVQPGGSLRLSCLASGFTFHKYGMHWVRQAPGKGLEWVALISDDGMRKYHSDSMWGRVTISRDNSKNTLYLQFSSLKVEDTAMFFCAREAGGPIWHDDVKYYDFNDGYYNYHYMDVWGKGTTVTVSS
Sequence of 1443_C16 (PG16) (TCN-116) (antibody) (VL): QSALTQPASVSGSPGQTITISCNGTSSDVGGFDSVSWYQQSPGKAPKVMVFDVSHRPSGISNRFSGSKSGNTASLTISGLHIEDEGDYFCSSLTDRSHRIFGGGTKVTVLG
Sequence of 4995_E20 (PGT-142) (antibody) (VH): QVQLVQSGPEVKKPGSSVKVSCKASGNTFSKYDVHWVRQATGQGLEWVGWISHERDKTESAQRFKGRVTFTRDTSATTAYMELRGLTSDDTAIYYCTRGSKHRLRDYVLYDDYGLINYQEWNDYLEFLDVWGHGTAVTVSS
Sequence of 4995_E20 (PGT-142) (antibody) (VL): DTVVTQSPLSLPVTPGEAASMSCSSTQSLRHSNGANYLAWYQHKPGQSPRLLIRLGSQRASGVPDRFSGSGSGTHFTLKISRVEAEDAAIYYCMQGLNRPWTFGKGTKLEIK
Sequence of 4970_K22 (PGT-144) (antibody) (VH): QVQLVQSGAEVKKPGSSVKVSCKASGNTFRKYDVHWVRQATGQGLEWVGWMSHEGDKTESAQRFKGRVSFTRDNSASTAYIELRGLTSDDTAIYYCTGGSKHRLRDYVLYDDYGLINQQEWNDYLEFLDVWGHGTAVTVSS
Sequence of 4970_K22 (PGT-144) (antibody) (VL): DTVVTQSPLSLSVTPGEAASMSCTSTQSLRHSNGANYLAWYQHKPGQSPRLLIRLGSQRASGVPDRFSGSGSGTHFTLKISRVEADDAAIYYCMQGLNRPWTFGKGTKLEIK
Sequence of 4980_N08 (PGT-143) (antibody) (VH): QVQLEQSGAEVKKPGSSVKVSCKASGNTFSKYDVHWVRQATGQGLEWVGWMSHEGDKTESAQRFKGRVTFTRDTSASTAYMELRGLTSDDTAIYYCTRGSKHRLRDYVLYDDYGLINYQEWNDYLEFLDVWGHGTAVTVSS
Sequence of 4980_N08 (PGT-143) (antibody) (VL): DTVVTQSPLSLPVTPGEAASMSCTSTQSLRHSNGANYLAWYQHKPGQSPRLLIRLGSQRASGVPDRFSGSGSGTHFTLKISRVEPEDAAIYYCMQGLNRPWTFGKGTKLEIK
Sequence of 4993_K13 (PGT-141) (antibody) (VH): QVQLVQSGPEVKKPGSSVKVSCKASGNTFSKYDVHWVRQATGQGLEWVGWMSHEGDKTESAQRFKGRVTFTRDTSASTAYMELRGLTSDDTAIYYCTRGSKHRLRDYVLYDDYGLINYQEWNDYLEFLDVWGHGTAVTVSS

Substance | IC50 (µg/ml), pseudovirus neutralization [1] | IC50 [2] | IC50 (µg/ml), pseudovirus neutralization [3] | IC50 [4] | IC50, pseudovirus neutralization [5] | IC50 (µg/ml), pseudovirus neutralization [6] | IC50 (µg/ml), pseudovirus neutralization [7] | IC50 [8] | IC50 (µg/ml), pseudovirus neutralization [9] | IC50 (µg/ml), pseudovirus neutralization [10] | IC50 (µg/ml), pseudovirus neutralization [11] | IC50 (µg/ml), pseudovirus neutralization [13] | IC50 (µg/ml), pseudovirus neutralization [14] | IC50 (µg/ml), pseudovirus neutralization [15] | IC50 [16] | IC50, pseudovirus neutralization [17] | IC50 (µg/mL), pseudovirus neutralization [18] | IC50 (µg/mL), pseudovirus neutralization [19] | IC50 (µg/mL), pseudovirus neutralization [23] | IC50 (µg/mL), pseudovirus neutralization [24] | further results
2G12 (antibody) | > 50 µg/mL | > 50 mg/L | 0.42 µg/mL | > 50 mg/L | > 50 mg/L | > 50 µg/mL | > 50 µg/mL | > 50 mg/L | > 50 µg/mL | > 50 µg/mL | > 50 µg/mL | > 50 µg/mL | 17.2 µg/mL | 7.47 µg/mL | > 50 mg/L | 0.56 mg/L |  |  |  |  | IC50 (µg/ml), pseudovirus neutralization [12]: > 50 µg/mL
1443_C16 (PG16) (TCN-116) (antibody) | 6.98 µg/mL | 0.02 mg/L | 24 µg/mL | 0.04 mg/L | 0.127 mg/L | 0.35 µg/mL | 2.55 µg/mL | 0.002 mg/L | > 50 µg/mL | > 50 µg/mL | 0.01 µg/mL | > 50 µg/mL | 0.03 µg/mL | 0.01 µg/mL | 9.55 mg/L | 0.004 mg/L |  |  |  |  | IC50 (µg/ml), pseudovirus neutralization [12]: 0.003 µg/mL
2F5 (antibody) | 9.65 µg/mL | > 50 mg/L | 0.95 µg/mL | 0.07 mg/L | 1.51 mg/L | 1.7 µg/mL | > 50 µg/mL | 0.98 mg/L | > 50 µg/mL | > 50 µg/mL | 24.6 µg/mL | 13 µg/mL | 8.63 µg/mL | 9.4 µg/mL | > 50 mg/L | 3.37 mg/L |  |  |  |  | IC50 (µg/ml), pseudovirus neutralization [12]: 2.22 µg/mL
4E10 (antibody) | 13.7 µg/mL | 2.02 mg/L | 2.17 µg/mL | 0.45 mg/L | 1.9 mg/L | 1.13 µg/mL | 4.7 µg/mL | 1.27 mg/L | 4.92 µg/mL | > 50 µg/mL | 9.44 µg/mL | 13.6 µg/mL | 12.9 µg/mL | 12 µg/mL | 2.85 mg/L | 3.38 mg/L |  |  |  |  | IC50 (µg/ml), pseudovirus neutralization [12]: 3.24 µg/mL
4993_K13 (PGT-141) (antibody) |  |  |  |  |  |  |  |  |  |  |  |  |  |  |  |  | 0.222 µg/mL | 0.086 µg/mL | 1.89 µg/mL | 0.392 µg/mL | IC50 (µg/mL), pseudovirus neutralization [20]: > 50 µg/mL; IC50 (µg/mL), pseudovirus neutralization [21]: > 50 µg/mL; IC50 (µg/mL), pseudovirus neutralization [22]: > 50 µg/mL; IC50 (µg/mL), pseudovirus neutralization [25]: > 50 µg/mL; IC50 (µg/mL), pseudovirus neutralization [26]: > 50 µg/mL; IC50 (neutralizing activity, pseudovirus) [27]: 0.616 mg/L
4980_N08 (PGT-143) (antibody) |  |  |  |  |  |  |  |  |  |  |  |  |  |  |  |  | 0.107 µg/mL | 0.074 µg/mL | 2.97 µg/mL | 0.423 µg/mL | IC50 (µg/mL), pseudovirus neutralization [20]: > 50 µg/mL; IC50 (µg/mL), pseudovirus neutralization [21]: > 50 µg/mL; IC50 (µg/mL), pseudovirus neutralization [22]: > 50 µg/mL; IC50 (µg/mL), pseudovirus neutralization [25]: > 50 µg/mL; IC50 (µg/mL), pseudovirus neutralization [26]: > 50 µg/mL; IC50 (neutralizing activity, pseudovirus) [27]: 0.618 mg/L
4995_E20 (PGT-142) (antibody) |  |  |  |  |  |  |  |  |  |  |  |  |  |  |  |  | 0.076 µg/mL | 0.046 µg/mL | 2.81 µg/mL | 0.362 µg/mL | IC50 (µg/mL), pseudovirus neutralization [20]: > 50 µg/mL; IC50 (µg/mL), pseudovirus neutralization [21]: > 50 µg/mL; IC50 (µg/mL), pseudovirus neutralization [22]: > 50 µg/mL; IC50 (µg/mL), pseudovirus neutralization [25]: > 50 µg/mL; IC50 (µg/mL), pseudovirus neutralization [26]: > 50 µg/mL; IC50 (neutralizing activity, pseudovirus) [27]: 0.393 mg/L
VRC01 (antibody) |  |  |  |  |  |  |  |  |  |  |  |  |  |  |  |  | 0.056 µg/mL | 0.065 µg/mL | 0.073 µg/mL | 0.0371 µg/mL | IC50 (µg/mL), pseudovirus neutralization [20]: 0.685 µg/mL; IC50 (µg/mL), pseudovirus neutralization [21]: 0.167 µg/mL; IC50 (µg/mL), pseudovirus neutralization [22]: 0.515 µg/mL; IC50 (µg/mL), pseudovirus neutralization [25]: 4.65 µg/mL; IC50 (µg/mL), pseudovirus neutralization [26]: 0.029 µg/mL; IC50 (µg/mL), pseudovirus neutralization [28]: 0.125 µg/mL; IC50 [29]: 0.332 mg/L
PGV04 (antibody) |  |  |  |  |  |  |  |  |  |  |  |  |  |  |  |  | 0.056 µg/mL | 0.78 µg/mL | 0.043 µg/mL | > 50 µg/mL | IC50 (µg/mL), pseudovirus neutralization [30]: 0.25 µg/mL
b12 (antibody) | > 50 µg/mL | 7.64 mg/L | 45.6 µg/mL | > 50 mg/L | 9.99 mg/L | 0.13 µg/mL | > 50 µg/mL | > 50 mg/L | > 50 µg/mL | > 50 µg/mL | > 50 µg/mL | 1.01 µg/mL | > 50 µg/mL | 4.34 µg/mL | 0.94 mg/L | > 50 mg/L |  |  |  |  | IC50 (µg/ml), pseudovirus neutralization [12]: > 50 µg/mL
1495_C14 (PGC14) (antibody) | > 50 µg/mL | 25 mg/L | > 50 µg/mL | > 50 mg/L | > 50 mg/L | > 50 µg/mL | > 50 µg/mL | > 50 mg/L | > 50 µg/mL | > 50 µg/mL | 29 µg/mL | > 50 µg/mL | > 50 µg/mL | > 50 µg/mL | 12 mg/L | 28.6 mg/L |  |  |  |  | IC50 (µg/ml), pseudovirus neutralization [12]: 48 µg/mL
4970_K22 (PGT-144) (antibody) |  |  |  |  |  |  |  |  |  |  |  |  |  |  |  |  | 0.562 µg/mL | 1.58 µg/mL | > 50 µg/mL | > 50 µg/mL | IC50 (µg/mL), pseudovirus neutralization [20]: > 50 µg/mL; IC50 (µg/mL), pseudovirus neutralization [21]: > 50 µg/mL; IC50 (µg/mL), pseudovirus neutralization [22]: > 50 µg/mL; IC50 (µg/mL), pseudovirus neutralization [25]: > 50 µg/mL; IC50 (µg/mL), pseudovirus neutralization [26]: > 50 µg/mL; IC50 (neutralizing activity, pseudovirus) [27]: 5.12 mg/L
1496_C09 (PG9) (TCN-109) (antibody) | 6.32 µg/mL |  | 1.91 µg/mL |  | 0.111 mg/L | 9.31 µg/mL | 1.27 µg/mL | 0.01 mg/L |  |  | 0.027 µg/mL | 41.8 µg/mL | 0.27 µg/mL | 0.03 µg/mL | 1.45 mg/L | 0.0637 mg/L | 16.5 µg/mL | 0.335 µg/mL | 10.7 µg/mL | 0.166 µg/mL | 
